T1: DprA (DrDprA) (Deinococcus radiodurans R1 ATCC 13939, UniProt Q9RY31 1-370)
T1 sequence: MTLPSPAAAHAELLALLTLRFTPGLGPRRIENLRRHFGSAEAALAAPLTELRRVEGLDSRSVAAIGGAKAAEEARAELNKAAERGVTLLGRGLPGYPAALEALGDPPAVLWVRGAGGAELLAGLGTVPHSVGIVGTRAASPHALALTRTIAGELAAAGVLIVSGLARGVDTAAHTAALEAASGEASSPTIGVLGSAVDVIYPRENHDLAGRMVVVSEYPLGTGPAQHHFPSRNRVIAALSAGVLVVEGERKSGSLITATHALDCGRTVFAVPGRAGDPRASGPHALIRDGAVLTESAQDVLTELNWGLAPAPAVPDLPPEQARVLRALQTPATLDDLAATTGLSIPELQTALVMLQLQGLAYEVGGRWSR

B1: dT100 (ssDNA)
DNA: TTTTTTTTTTTTTTTTTTTTTTTTTTTTTTTTTTTTTTTTTTTTTTTTTTTTTTTTTTTTTTTTTTTTTTTTTTTTTTTTTTTTTTTTTTTTTTTTTTTT

The binders below were run against T1, DprA (DrDprA) (assay: fluorescence anisotropy; 2.5 mM Mg2+; apparent Kd; 25 mM NaCl, 20 mM Tris pH 7.5, 2.5 mM MgCl2, 2.5% (v/v) glycerol, 25 nM 5'-fluorescein ssDNA, 20 C; 35-mers of varying GC content (Fig. 5B) also tested, affinity rises with GC, but number, sequences and values not in the material). Conditions: protein: recombinant; tags: C-terminal His6; chain copies: 2; label: 5'-fluorescein.

| Binder | Kd [µM] |
| --- | --- |
| B1 | 1 |
| TTTTTTTTTTTTTTTTTTTT (ssDNA) [dT20] | 7.5 |
| TTTTTTTTTTTTTTTTTTTTTTTTTTTTTTTTTTTTTTTTTTTTTTTTTT (ssDNA) [dT50] | 1.2 |

Reference: paper PMC7314969, “Natural Transformation in Deinococcus radiodurans: A Genetic Analysis Reveals the Major Roles of DprA, DdrB, RecA, RecF, and RecO Proteins”
